Experimental data taken from article PMC6879718, “Mycobacterial OtsA Structures Unveil Substrate Preference Mechanism and Allosteric Regulation by 2-Oxoglutarate and 2-Phosphoglycerate” (mBio, 2019).
Entries after “also recorded” stand apart in the source; their conditions may differ. Where two headings read alike, the source gives them in different places.

Assays:
Format in all cases: biochemical, Mycobacterium thermoresistibile
[1] = target: T1, M. thermoresistibile OtsA R213E (Mycolicibacterium thermoresistibile, UniProt G7CGT2, R213E); test: Effect of allosteric regulators on OtsA activity (R213E); conditions: R213E, G6P and ADP-glucose both 0.3 mM
T1 sequence (G7CGT2 1-486 R213E): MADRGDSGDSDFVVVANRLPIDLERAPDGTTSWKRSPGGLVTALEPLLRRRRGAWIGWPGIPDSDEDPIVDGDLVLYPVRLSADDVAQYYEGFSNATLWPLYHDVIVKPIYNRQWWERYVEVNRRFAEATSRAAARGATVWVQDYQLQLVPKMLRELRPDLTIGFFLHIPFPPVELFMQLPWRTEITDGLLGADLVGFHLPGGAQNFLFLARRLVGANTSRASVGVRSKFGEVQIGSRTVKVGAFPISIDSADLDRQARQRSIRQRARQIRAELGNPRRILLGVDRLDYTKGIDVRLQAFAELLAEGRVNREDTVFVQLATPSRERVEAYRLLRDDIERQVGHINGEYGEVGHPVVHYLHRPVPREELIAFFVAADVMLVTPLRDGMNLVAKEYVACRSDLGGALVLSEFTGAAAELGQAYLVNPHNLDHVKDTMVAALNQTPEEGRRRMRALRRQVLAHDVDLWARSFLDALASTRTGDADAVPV
Protocol: (§1) . All reagents used were obtained from Sigma-Aldrich. The enzymatic reactions (200-μl reaction mixture) were performed at 37°C, and the reaction mixtures contained 50 mM Tris (pH 7.5), 200 mM NaCl, 10 mM MgCl2, 50 mM KCl, 0.3 mM NADH, 2.5 mM phosphoenolpyruvate (PEP), 10 units of pyruvate kinase-lactate dehydrogenase, 0.1 μM enzyme, and various concentrations of G6P and NDP-glucose to determine kinetic parameters.
(§2) […]. All experiments were performed in triplicate in a PHERAstar plate reader (BMG Labtech), and data were analyzed with Prism 5 (GraphPad Software).

[2] = target: T2, M. thermoresistibile OtsA R384E (Mycolicibacterium thermoresistibile, UniProt G7CGT2, R384E); test: Effect of allosteric regulators on OtsA activity (R384E); conditions: R384E, G6P and ADP-glucose both 0.3 mM
T2 sequence (G7CGT2 1-486 R384E): T1 sequence (G7CGT2 1-486 R213E)
Protocol: as §1, §2

[3] = target: M. thermoresistibile OtsA wild type (Mycolicibacterium thermoresistibile, UniProt G7CGT2); test: Effect of feedback inhibitors and allosteric regulators on OtsA activity (wild type)
[4] = system: O=C[C@H](O)[C@@H](O)[C@H](O)[C@H](O)COP(=O)(O)O; test: OtsA kinetic parameters, continuous colorimetric coupled assay (L319I); conditions: other: L319I; G6P fixed at 10 mM for NDP-glucose, ADP-glucose […] for G6P; pH 7.5; 37.0 °C
Protocol: (§3) Formation of T6P was assessed by a continuous colorimetric assay that followed the release of NDP by measuring the oxidation of NADH at 340 nm, in the presence of pyruvate kinase and lactate dehydrogenase. All reagents used were obtained from Sigma-Aldrich.

[5] = system: Nc1ncnc2c1ncn2[C@@H]1O[C@H](COP(=O)(O)OP(=O)(O)O[C@H]2O[C@H](CO)[C@@H](O)[C@H](O)[C@H]2O)[C@@H](O)[C@H]1O; test: as above; conditions: other: L319I; G6P fixed at 10 mM for NDP-glucose, ADP-glucose […] for G6P; pH 7.5; 37.0 °C
Protocol: as §3

[6] = system: Nc1nc2c(ncn2[C@@H]2O[C@H](COP(=O)(O)OP(=O)(O)O[C@H]3O[C@H](CO)[C@@H](O)[C@H](O)[C@H]3O)[C@@H](O)[C@H]2O)c(=O)[nH]1; test: as above; conditions: other: L319I; G6P fixed at 10 mM for NDP-glucose, ADP-glucose […] for G6P; pH 7.5; 37.0 °C
Protocol: as §3

[7] = system: O=C[C@H](O)[C@@H](O)[C@H](O)[C@H](O)COP(=O)(O)O; test: OtsA kinetic parameters, continuous colorimetric coupled assay (L319I, E367L); conditions: other: L319I, G6P fixed at 10 mM for NDP-glucose, ADP-glucose […] for G6P, pH 7.5, 37.0 °C
Protocol: as §3

[8] = system: Nc1ncnc2c1ncn2[C@@H]1O[C@H](COP(=O)(O)OP(=O)(O)O[C@H]2O[C@H](CO)[C@@H](O)[C@H](O)[C@H]2O)[C@@H](O)[C@H]1O; test: as above; conditions: other: L319I, G6P fixed at 10 mM for NDP-glucose, ADP-glucose […] for G6P, pH 7.5, 37.0 °C
Protocol: as §3

[9] = system: Nc1nc2c(ncn2[C@@H]2O[C@H](COP(=O)(O)OP(=O)(O)O[C@H]3O[C@H](CO)[C@@H](O)[C@H](O)[C@H]3O)[C@@H](O)[C@H]2O)c(=O)[nH]1; test: as above; conditions: other: L319I, G6P fixed at 10 mM for NDP-glucose, ADP-glucose […] for G6P, pH 7.5, 37.0 °C
Protocol: as §3

[10] = system: O=C[C@H](O)[C@@H](O)[C@H](O)[C@H](O)COP(=O)(O)O; test: OtsA kinetic parameters, continuous colorimetric coupled assay (L319I, V363F, E367L); conditions: other: L319I, G6P fixed at 10 mM for NDP-glucose, ADP-glucose […] for G6P, pH 7.5, 37.0 °C
Protocol: as §3

[11] = system: Nc1ncnc2c1ncn2[C@@H]1O[C@H](COP(=O)(O)OP(=O)(O)O[C@H]2O[C@H](CO)[C@@H](O)[C@H](O)[C@H]2O)[C@@H](O)[C@H]1O; test: as above; conditions: other: L319I, G6P fixed at 10 mM for NDP-glucose, ADP-glucose […] for G6P, pH 7.5, 37.0 °C
Protocol: as §3

[12] = system: Nc1nc2c(ncn2[C@@H]2O[C@H](COP(=O)(O)OP(=O)(O)O[C@H]3O[C@H](CO)[C@@H](O)[C@H](O)[C@H]3O)[C@@H](O)[C@H]2O)c(=O)[nH]1; test: as above; conditions: other: L319I, G6P fixed at 10 mM for NDP-glucose, ADP-glucose […] for G6P, pH 7.5, 37.0 °C
Protocol: as §3

[13] = system: O=C[C@H](O)[C@@H](O)[C@H](O)[C@H](O)COP(=O)(O)O; test: OtsA kinetic parameters, continuous colorimetric coupled assay (R213E); conditions: other: R213E; G6P fixed at 10 mM for NDP-glucose, ADP-glucose […] for G6P; pH 7.5; 37.0 °C
Protocol: as §1, with “Formation of T6P was assessed by a continuous colorimetric assay that followed the release of NDP by measuring the oxidation of NADH at 340 nm, in the presence of pyruvate kinase and lactate dehydrogenase. All” for “. All”

[14] = system: Nc1ncnc2c1ncn2[C@@H]1O[C@H](COP(=O)(O)OP(=O)(O)O[C@H]2O[C@H](CO)[C@@H](O)[C@H](O)[C@H]2O)[C@@H](O)[C@H]1O; test: as above; conditions: other: R213E; G6P fixed at 10 mM for NDP-glucose, ADP-glucose […] for G6P; pH 7.5; 37.0 °C
Protocol: as §1, with “Formation of T6P was assessed by a continuous colorimetric assay that followed the release of NDP by measuring the oxidation of NADH at 340 nm, in the presence of pyruvate kinase and lactate dehydrogenase. All” for “. All”

[15] = system: O=C[C@H](O)[C@@H](O)[C@H](O)[C@H](O)COP(=O)(O)O; test: OtsA kinetic parameters, continuous colorimetric coupled assay (R384E); conditions: other: R384E; G6P fixed at 10 mM for NDP-glucose, ADP-glucose […] for G6P; pH 7.5; 37.0 °C
Protocol: as §1, with “Formation of T6P was assessed by a continuous colorimetric assay that followed the release of NDP by measuring the oxidation of NADH at 340 nm, in the presence of pyruvate kinase and lactate dehydrogenase. All” for “. All”

[16] = system: Nc1ncnc2c1ncn2[C@@H]1O[C@H](COP(=O)(O)OP(=O)(O)O[C@H]2O[C@H](CO)[C@@H](O)[C@H](O)[C@H]2O)[C@@H](O)[C@H]1O; test: as above; conditions: other: R384E; G6P fixed at 10 mM for NDP-glucose, ADP-glucose […] for G6P; pH 7.5; 37.0 °C
Protocol: as §1, with “Formation of T6P was assessed by a continuous colorimetric assay that followed the release of NDP by measuring the oxidation of NADH at 340 nm, in the presence of pyruvate kinase and lactate dehydrogenase. All” for “. All”

[17] = system: O=C[C@H](O)[C@@H](O)[C@H](O)[C@H](O)COP(=O)(O)O; test: OtsA kinetic parameters, continuous colorimetric coupled assay (V363F); conditions: other: V363F; G6P fixed at 10 mM for NDP-glucose, ADP-glucose […] for G6P; pH 7.5; 37.0 °C
Protocol: as §3

[18] = system: Nc1ncnc2c1ncn2[C@@H]1O[C@H](COP(=O)(O)OP(=O)(O)O[C@H]2O[C@H](CO)[C@@H](O)[C@H](O)[C@H]2O)[C@@H](O)[C@H]1O; test: as above; conditions: other: V363F; G6P fixed at 10 mM for NDP-glucose, ADP-glucose […] for G6P; pH 7.5; 37.0 °C
Protocol: as §3

[19] = system: Nc1nc2c(ncn2[C@@H]2O[C@H](COP(=O)(O)OP(=O)(O)O[C@H]3O[C@H](CO)[C@@H](O)[C@H](O)[C@H]3O)[C@@H](O)[C@H]2O)c(=O)[nH]1; test: as above; conditions: other: V363F; G6P fixed at 10 mM for NDP-glucose, ADP-glucose […] for G6P; pH 7.5; 37.0 °C
Protocol: as §3

[20] = wild type, G6P and ADP-glucose both 0.3 mM

O=C(O)CCC(=O)C(=O)O [2OG, 2-oxoglutarate]
effect on OtsA activity [1]: abolished the strong response
nH, Hill coefficient (95% confidence interval) [1]: 0.26 (0.16–0.35)
IC50 ([1]; read-out: IC50 (95% confidence interval)): 73 mM
effect on OtsA activity [2]: strong activator
nH, Hill coefficient (95% confidence interval) [2]: 2.5 (1.4–3.5)
EC50 ([2]; read-out: EC50 (95% confidence interval), activation): 700 µM
nH, Hill coefficient (95% confidence interval) [3, 20]: 1.4 (1.1–1.7)
IC50 ([3]; wild type, G6P and ADP-glucose both 0.3 mM, read-out: IC50 (95% confidence interval)): 1.8 mM

O=C(O)C(CO)OP(=O)(O)O (stereo not shown) [2PG, 2-phosphoglyceric acid]
nH, Hill coefficient (95% confidence interval) [1]: 0.51 (0.40–0.63)
effect on OtsA activity [2]: no effect
IC50 [3]: 2.3 mM
nH, Hill coefficient (95% confidence interval) [3, 20]: 2.0 (1.4–2.7)

O=S(=O)(O)CCNC1CCCCC1 [CHES, N-cyclohexyl-2-aminoethanesulfonic acid]
effect on OtsA activity [3, 20]: no discernible impact on OtsA activity

O=C(CO)[C@@H](O)[C@H](O)[C@H](O)COP(=O)(O)O [F6P]
effect on OtsA activity [3]: could not detect any effect; also recorded: no effect on the enzyme activity

O=P(O)(O)OC[C@H]1O[C@H](O[C@H]2O[C@H](CO)[C@@H](O)[C@H](O)[C@H]2O)[C@H](O)[C@@H](O)[C@@H]1O [T6P, trehalose-6-phosphate]
effect on OtsA activity [3, 20]: very low sensitivity

OC[C@H]1O[C@H](O[C@H]2O[C@H](CO)[C@@H](O)[C@H](O)[C@H]2O)[C@H](O)[C@@H](O)[C@@H]1O [Trehalose]
IC50 [3]: ~24 mM

M. thermoresistibile OtsA L319I (Mycolicibacterium thermoresistibile ATCC 19527; L319I)
Km [4]: 3.3 ± 0.2 mM
kcat [4]: 6.4 ± 0.2 s⁻¹
kcat/Km [4]: 1900 ± 200 M⁻¹ s⁻¹
Km [5]: 0.71 ± 0.18 mM
kcat [5]: 8.4 ± 0.7 s⁻¹
kcat/Km [5]: 12000 ± 2000 M⁻¹ s⁻¹
Km [6]: 0.35 ± 0.04 mM
kcat [6]: 3.1 ± 0.1 s⁻¹
kcat/Km [6]: 8900 ± 1400 M⁻¹ s⁻¹

M. thermoresistibile OtsA L319I, E367L (Mycolicibacterium thermoresistibile ATCC 19527; E367L/L319I)
Km [7]: 3.7 ± 0.2 mM
kcat [7]: 21 ± 1 s⁻¹
kcat/Km [7]: 5700 ± 500 M⁻¹ s⁻¹
Km [8]: 0.63 ± 0.04 mM
kcat [8]: 14 ± 1 s⁻¹
kcat/Km [8]: 22000 ± 3000 M⁻¹ s⁻¹
Km [9]: 0.70 ± 0.05 mM
kcat [9]: 9.2 ± 0.4 s⁻¹
kcat/Km [9]: 13000 ± 2000 M⁻¹ s⁻¹

M. thermoresistibile OtsA L319I, V363F, E367L (Mycolicibacterium thermoresistibile ATCC 19527; E367L/L319I/V363F)
Km [10]: 3.2 ± 0.2 mM
kcat [10]: 17 ± 1 s⁻¹
kcat/Km [10]: 5300 ± 600 M⁻¹ s⁻¹
Km [11]: 1.3 ± 0.1 mM
kcat [11]: 19 ± 1 s⁻¹
kcat/Km [11]: 15000 ± 2000 M⁻¹ s⁻¹
Km [12]: 0.90 ± 0.06 mM
kcat [12]: 16 ± 1 s⁻¹
kcat/Km [12]: 18000 ± 2000 M⁻¹ s⁻¹

M. thermoresistibile OtsA R213E (Mycolicibacterium thermoresistibile ATCC 19527; R213E)
Km [13]: 3.3 ± 0.3 mM
kcat [13]: 33 ± 2 s⁻¹
kcat/Km [13]: 10000 ± 1000 M⁻¹ s⁻¹
Km [14]: 0.31 ± 0.01 mM
kcat [14]: 56 ± 2 s⁻¹
kcat/Km [14]: 180000 ± 13000 M⁻¹ s⁻¹

M. thermoresistibile OtsA R384E (Mycolicibacterium thermoresistibile ATCC 19527; R384E)
Km [15]: 2.9 ± 0.2 mM
kcat [15]: 2.1 ± 0.2 s⁻¹
kcat/Km [15]: 770 ± 50 M⁻¹ s⁻¹
Km [16]: 1.9 ± 0.2 mM
kcat [16]: 3.2 ± 0.1 s⁻¹
kcat/Km [16]: 1700 ± 200 M⁻¹ s⁻¹

M. thermoresistibile OtsA V363F (Mycolicibacterium thermoresistibile ATCC 19527; V363F)
Km [17]: 3.1 ± 0.2 mM
kcat [17]: 19 ± 1 s⁻¹
kcat/Km [17]: 6100 ± 700 M⁻¹ s⁻¹
Km [18]: 0.60 ± 0.03 mM
kcat [18]: 11 ± 1 s⁻¹
kcat/Km [18]: 18000 ± 2000 M⁻¹ s⁻¹
Km [19]: 0.74 ± 0.08 mM
kcat [19]: 14 ± 1 s⁻¹
kcat/Km [19]: 19000 ± 3000 M⁻¹ s⁻¹
